Experimental data from patent publication US20250250357A1.

Experiments:
[1] = target: monkey MSLN full-length protein (NCBI: XP_028696439.1) on HEK293T cells (monkey); assay: FACS on HEK293T-monkey MSLN cells; antibody 20 nM
[2] = target: monkey MSLN full-length protein (NCBI: XP_028696439.1) on HEK293T cells (monkey); assay: FACS on HEK293T-monkey MSLN cells; antibody 4 nM
[3] = target: human MSLN full-length protein (NCBI: AAH09272.1) on stably transfected CHO-K1 or HEK293T cells (human) (UniProt Q13421); assay: FACS on CHO-K1-hMSLN-2C8 cells; antibody 4 nM
[4] = target: human MSLN full-length protein (NCBI: AAH09272.1) on stably transfected CHO-K1 or HEK293T cells (human) (UniProt Q13421); assay: FACS on CHO-K1-hMSLN-2C8 cells; secondary antibody control 37
[5] = target: human MSLN full-length protein (NCBI: AAH09272.1) on stably transfected CHO-K1 or HEK293T cells (human) (UniProt Q13421); assay: FACS on CHO-K1-hMSLN-2C8 cells; antibody 0.00128 nM
[6] = target: human MSLN full-length protein (NCBI: AAH09272.1) on stably transfected CHO-K1 or HEK293T cells (human) (UniProt Q13421); assay: FACS on CHO-K1-hMSLN-2C8 cells; antibody 100 nM
[7] = target: monkey MSLN full-length protein (NCBI: XP_028696439.1) on HEK293T cells (monkey); assay: FACS on HEK293T-monkey MSLN cells; antibody 0.032 nM
[8] = target: human MSLN full-length protein (NCBI: AAH09272.1) on stably transfected CHO-K1 or HEK293T cells (human) (UniProt Q13421); assay: FACS on CHO-K1-hMSLN clone 2D11, overlay with secondary antibody only
[9] = target: human MSLN full-length protein (NCBI: AAH09272.1) on stably transfected CHO-K1 or HEK293T cells (human) (UniProt Q13421); assay: FACS on CHO-K1-hMSLN clone 2C5, overlay with secondary antibody only
[10] = target: human MSLN full-length protein (NCBI: AAH09272.1) on stably transfected CHO-K1 or HEK293T cells (human) (UniProt Q13421); assay: FACS on HEK293T-hMSLN-2A4 cells; secondary antibody control 1
[11] = target: human MSLN full-length protein (NCBI: AAH09272.1) on stably transfected CHO-K1 or HEK293T cells (human) (UniProt Q13421); assay: FACS on CHO-K1-hMSLN-2C8 cells; antibody […]
[12] = target: monkey MSLN full-length protein (NCBI: XP_028696439.1) on HEK293T cells (monkey); assay: FACS on HEK293T-monkey MSLN cells; antibody […]
[13] = target: human MSLN full-length protein (NCBI: AAH09272.1) on stably transfected CHO-K1 or HEK293T cells (human) (UniProt Q13421); assay: FACS on CHO-K1-hMSLN-2C8 cells; antibody 0.0064 nM
[14] = target: human MSLN full-length protein (NCBI: AAH09272.1) on stably transfected CHO-K1 or HEK293T cells (human) (UniProt Q13421); assay: FACS on CHO-K1-hMSLN-2C8 cells; antibody 20 nM
[15] = target: monkey MSLN full-length protein (NCBI: XP_028696439.1) on HEK293T cells (monkey); assay: FACS on HEK293T-monkey MSLN cells; antibody 0.0064 nM
[16] = target: monkey MSLN full-length protein (NCBI: XP_028696439.1) on HEK293T cells (monkey); assay: FACS on HEK293T-monkey MSLN cells; antibody 100 nM
[17] = target: monkey MSLN full-length protein (NCBI: XP_028696439.1) on HEK293T cells (monkey); assay: FACS on HEK293T-monkey MSLN cells; antibody 0.00128 nM
[18] = target: human MSLN full-length protein (NCBI: AAH09272.1) on stably transfected CHO-K1 or HEK293T cells (human) (UniProt Q13421); assay: FACS on HEK293T-hMSLN-2A7 cells; secondary antibody control 1
[19] = target: human MSLN full-length protein (NCBI: AAH09272.1) on stably transfected CHO-K1 or HEK293T cells (human) (UniProt Q13421); assay: FACS on CHO-K1-hMSLN-2D11 cells; secondary antibody control 37
[20] = target: monkey MSLN full-length protein (NCBI: XP_028696439.1) on HEK293T cells (monkey); assay: FACS on HEK293T-monkey MSLN cells; antibody 0.8 nM
[21] = target: human MSLN full-length protein (NCBI: AAH09272.1) on stably transfected CHO-K1 or HEK293T cells (human) (UniProt Q13421); assay: FACS on CHO-K1-hMSLN-2C8 cells; antibody 0.8 nM
[22] = target: human MSLN full-length protein (NCBI: AAH09272.1) on stably transfected CHO-K1 or HEK293T cells (human) (UniProt Q13421); assay: FACS on CHO-K1-hMSLN-2C5 cells; secondary antibody control 37
[23] = target: human MSLN full-length protein (NCBI: AAH09272.1) on stably transfected CHO-K1 or HEK293T cells (human) (UniProt Q13421); assay: FACS on CHO-K1-hMSLN-2C8 cells; antibody 0.032 nM
[24] = target: human MSLN full-length protein (NCBI: AAH09272.1) on stably transfected CHO-K1 or HEK293T cells (human) (UniProt Q13421); assay: FACS on CHO-K1-hMSLN clone 2C8, overlay with secondary antibody only
[25] = target: human MSLN full-length protein (NCBI: AAH09272.1) on stably transfected CHO-K1 or HEK293T cells (human) (UniProt Q13421); assay: FACS on HEK293T-hMSLN-B8 cells; secondary antibody control 1

- FACS fluorescence intensity [1]: 100
- FACS fluorescence intensity [2]: 90
- FACS fluorescence intensity [3]: 9000
- Mean fluorescence intensity of cells [4]: 234000
- FACS fluorescence intensity [5]: 75
- FACS fluorescence intensity [6]: 15300
- FACS fluorescence intensity [7]: 85
- percent of cells in the APC-A+ gate [8]: 100%
- percent of cells in the APC-A+ gate [9]: 100%
- Mean fluorescence intensity of cells [10]: 15400
- FACS fluorescence intensity [11]: 593
- FACS fluorescence intensity [12]: 86
- FACS fluorescence intensity [13]: 96
- FACS fluorescence intensity [14]: 15400
- FACS fluorescence intensity [15]: 85
- FACS fluorescence intensity [16]: 126
- FACS fluorescence intensity [17]: 85
- Mean fluorescence intensity of cells [18]: 6580
- Mean fluorescence intensity of cells [19]: 218000
- FACS fluorescence intensity [20]: 88
- FACS fluorescence intensity [21]: 2290
- Mean fluorescence intensity of cells [22]: 206000
- FACS fluorescence intensity [23]: 206
- percent of cells in the APC-A+ gate [24]: 99.4%
- Mean fluorescence intensity of cells [25]: 24400
B1: Tab020 (YP223, rabbitIgG1) (antibody, V domains shown)
VH: QEQLEESGGDLVQPEGSLTLTCKASGLDFSSSYWICWVRQAPGKGLEWIGCRHTFTANTWSASWVNGRFTISRSTSLGTVDLKMTSLTAADTATYFCARDESNNDGWDFKLWGPGTLVTVSS
VL: AYDMTQTPASVSAAVGGTVTIKCQASQSISNYLAWYQQKPGQPPKLLIYQASTLAPGVSSRFKGSGSGTEFTLTISGVECADAATYYCQQGYTSSNVENVFGGGTGVVVGD
